Results on eight molecules are retold here after patent US20030199438A1, “Method for identification of proteins from intracellular bacteria” (priority 2001, published 2003).

“Also recorded” adds a separate entry of the source.

Data set [1] deals with C. trachomatis D infected cell cultures. The experiment in a line: Pulse chase studies of candidates for secreted proteins (2D-PAGE). It is filed as cell-based. The method, then:
(§1) To label chlamydial proteins for two hour periods, infected cell cultures were incubated in a medium containing RPMI 1640, […] gentamycin, 40 μg/ml cycloheximide, 100 μCi/ml [35S]-methionine/cysteine (Promix, Amersham Pharmacia Biotech, Uppsala, Sweden) as described previously (Shaw et al., 1999,2000) [18.] [19.]. After labelling the labelling medium was changed to normal growth medium following two washes in normal growth medium and the infected cells were harvested at different points in time after labelling. Similarly, labelled EB proteins were obtained by allowing the Chlamydia to grow until 72 h.p.i. after the two hour labelling periods. The labelled EB were then harvested and purified using two consecutive steps of density gradient ultracentrifugation essentially as described for C. trachomatis in (Schacter and Wyrick, 1994) [22.]and for C. pneumoniae (Knudsen et al. 1999 [17.]). Proteins in the EB preparation and pulse chase preparation were labelled at the same intervals as proteins from the whole cell lysate preparation to facilitate correct 2D-PAGE protein profile comparison.
In order to estimate the time in which the identified candidate proteins could be present inside infected cells, the invention provides a series of pulse chase studies. In the following examples infected cell cultures were [35S]-labelled from 22-24 hours. After the labelling period the medium was changed to normal RPMI growth medium without [35S]-methionine and cells were harvested at different times after labelling.

Data set [2] relates to host cell proteasome. The experiment in a line: Pulse chase studies in combination with proteasome inhibitors (2D-PAGE). Type of data set: cell-based, C. trachomatis D infected cells. More on the design: key to Affected by MG115 / Affected by MG132: +: turnover times is prolonged by treatment with different proteasome inhibitors during labelling and chase. To be noted: for level on chased+MG132 gels compared to controls: labelled 22-24 h.p.i., chased 24-28 h.p.i. with MG132 (10-100 μM; 20 μM in FIG. 6); for turnover time upon addition of proteasome inhibitors: proteasome inhibitors added during the chase period; for Affected by MG115 / Affected by MG132: turnover time of C. trachomatis D protein, inhibitor during labelling and chase. The method, then:
as §1
Cell permeable proteasome inhibitors are added to the infected cell cultures during the labelling and chase period and the turnover time of proteins compared to that observed for labelling/chase without proteasome inhibitors added. Proteins were labelled in the presence or absence of 10-100 μM of the proteasome inhibitor MG-132 from 22-24 h.p.i. The labelling medium was then replaced with growth medium with or without MG132 after two washes in normal growth medium and chased from 24 h.p.i. to 28 h.p.i. Cell lysates were run on 2D-PAGE(IPG) and compared to controls without MG-132. and to gels with proteins harvested immediately after labelling (FIGS. 6A, B and C).
The invention includes the use of several other proteasome inhibitors (e.g. MG115, MG262, PSI and lactocystein), which inhibit different parts of the catalytic activity of the proteasome, which may elucidate other proteins that are degraded in the proteasome (Table IV).

The test system of data set [3] is host cell proteasome. The experiment in a line: Immunoblotting with PAb255 against CT610 of MG132 treated infected cells. Type of data set: cell-based, C. trachomatis D infected cells. The following applies: for abundance on 2D-gel immunoblot with PAb255 after MG132 treatment: MG132 for 6 hours prior to harvesting at 30 h.p.i. Here is the method:
In order to confirm that the PAbs recognized the correct vaccine candidates and to visualize potential post translational modifications or processing, 2D-PAGE immunoblotting were performed. 500 μg unlabelled and 2×10^6 cpm labelled C. trachomatis D or C. pneumoniae protein from whole cell lysates was separated by 2D-PAGE, and proteins were electroblotted on to PVDF membranes. Immunostaining was carried out using a 1/5001/1000 dilution of the PAbs in a buffer containing 150 mM NaCl (or in high salt, 400 mM), 20 mM Tris, 0.2% w/v gelatin, 0.05% v/v Tween 20 (Bio-Rad) and 2% v/v normal goat serum (Dako, Glostrup Denmark).
The secondary antibody used was alkaline phosphatase-conjugated goat anti-rabbit IgG (Bio-Rad) diluted 1/2000 in antibody buffer. Blots were stained with 5-bromo-4-chloro-3-indolylphosphate toluidium (BCIP)/nitroblue tetrazolium (NBT) (Bio-Rad) until a clear reaction was detected. Immunoblots were computer scanned and subsequently exposed to X-ray films for approximately 8 days. Melanie II Software was used in order to compare immunostained proteins with their [35S]-labelled counterparts.
DT7 was identified as CT610 and was located just above DT9, DT10, DT11 and DT12 (FIG. 6A). IMB with PAb255 against CT610 on 2D-gel blots (FIG. 7C1) of whole cell lysates clearly reacted with two rows of spots, one row representing DT7 and the other row representing DT9, DT10, DT11 and DT12. CT610 is therefore present in different isoforms presumably due to different posttranslational modification and processing.
IMB with PAb255 was performed on ordinary SDS-PAGE PVDF blots with protein from whole cell lysates treated for six hours in the presence or absence of MG132, respectively.
(A western blot detects proteins with antibodies after separation by electrophoresis.)

B1: DT8: novel 7.2 kDa C. trachomatis specific protein, SEQ ID NO:1, not annotated in genome (protein, listed as Chlamydia trachomatis)
chain: MQHTIMLSLENDNDKLASMMDRVVAASSSILSASKDSESNRQFTISKAPDKEAPCRVSYVAASALSE
Consider B1, for which the “turnover time in pulse chase studies” value in data set [1] is reported as “short”. The “turnover time (time present after synthesis)” value in data set [1] (labelled 22-24 h.p.i., chased) is below 6 h.

B2: DT9: C. trachomatis D protein spot identified as CT610 (lower row) (protein)
chain: MNFLDQLDLIIQNKHMLEHTFYVKWSKGELTKEQLQAYAKDYYLHIKAFPKYLSAIHSRCDDLEARKLLLDNLMDEENGYPNHIDLWKQFVFALGVTPEELEAHEPSEAAKAKVATFMRWCTGDSLAAGVAALYSYESQIPRIAREKIRGLTEYFGFSNPEDYAYFTEHEEADVRHAREEKALIEMLLKDDADKVLEASQEVTQSLYGFLDSFLDPGTCCSCHQSY
As for B2, in the data set on host cell proteasome [2], the “level on chased+MG132 gels compared to controls” value (“level … compared to controls” for short) was “significantly greater; also recorded: higher; also recorded: significantly increased”, the “turnover time upon addition of proteasome inhibitors” value was “prolonged”, the “Affected by MG115” value is recorded as “+” and the “Affected by MG132” value is listed as “+”. The “turnover time in pulse chase studies” value in data set [1] is listed as “short”. Besides, in the data set with host cell proteasome [3], the “abundance on 2D-gel immunoblot with PAb255 after MG132 treatment” value (shortened to “abundance on 2D-gel immunoblot”) is “clear relative increase; also recorded: clearly increased”.

B3: DT7: C. trachomatis D protein spot identified as CT610 (upper row) (protein)
chain: MNFLDQLDLIIQNKHMLEHTFYVKWSKGELTKEQLQAYAKDYYLHIKAFPKYLSAIHSRCDDLEARKLLLDNLMDEENGYPNHIDLWKQFVFALGVTPEELEAHEPSEAAKAKVATFMRWCTGDSLAAGVAALYSYESQIPRIAREKIRGLTEYFGFSNPEDYAYFTEHEEADVRHAREEKALIEMLLKDDADKVLEASQEVTQSLYGFLDSFLDPGTCCSCHQSY
For B3, the “level … compared to controls” value with host cell proteasome [2] is recorded as “not significantly affected”. In data set [1], the “turnover time in pulse chase studies” value is “short”. The “level of band on SDS-PAGE immunoblot with PAb255, MG132 treated vs untreated” value in the data set with host cell proteasome [3] (six hours with or without MG132 (50 μM), harvested 30 h.p.i.) is given as “not significantly altered”.

B4: DT11: C. trachomatis D protein spot identified as CT610 (lower row) (protein)
chain: MNFLDQLDLIIQNKHMLEHTFYVKWSKGELTKEQLQAYAKDYYLHIKAFPKYLSAIHSRCDDLEARKLLLDNLMDEENGYPNHIDLWKQFVFALGVTPEELEAHEPSEAAKAKVATFMRWCTGDSLAAGVAALYSYESQIPRIAREKIRGLTEYFGFSNPEDYAYFTEHEEADVRHAREEKALIEMLLKDDADKVLEASQEVTQSLYGFLDSFLDPGTCCSCHQSY
As to B4, in the data set with host cell proteasome [2], the “level … compared to controls” value was “significantly greater; also recorded: higher; also recorded: significantly increased”, the “turnover time upon addition of proteasome inhibitors” value is given as “prolonged”, the “Affected by MG115” value is on record as “+” and the “Affected by MG132” value is listed as “+”. Moreover, the “turnover time in pulse chase studies” value in data set [1] was “short”. Also, the “abundance on 2D-gel immunoblot” value in the data set with host cell proteasome [3] is listed as “clearly increased”. Besides, the “abundance on 2D-gel immunoblot” value in the data set on host cell proteasome [3] (listed as DT111) is given as “clear relative increase”.

B5: DT10: C. trachomatis D protein spot identified as CT610 (lower row) (protein)
chain: MNFLDQLDLIIQNKHMLEHTFYVKWSKGELTKEQLQAYAKDYYLHIKAFPKYLSAIHSRCDDLEARKLLLDNLMDEENGYPNHIDLWKQFVFALGVTPEELEAHEPSEAAKAKVATFMRWCTGDSLAAGVAALYSYESQIPRIAREKIRGLTEYFGFSNPEDYAYFTEHEEADVRHAREEKALIEMLLKDDADKVLEASQEVTQSLYGFLDSFLDPGTCCSCHQSY
As to B5, in the data set with host cell proteasome [2], the “level … compared to controls” value was “significantly greater; also recorded: higher; also recorded: significantly increased”, the “turnover time upon addition of proteasome inhibitors” value is “prolonged”, the “Affected by MG115” value was “+” and the “Affected by MG132” value is reported as “+”. The “turnover time in pulse chase studies” value in data set [1] is “short”. The “abundance on 2D-gel immunoblot” value with host cell proteasome [3] is recorded as “clear relative increase; also recorded: clearly increased”.

B6: DT48: C. trachomatis D protein spot, N-terminal fragment of CT858 (protein)
chain: IHSPVQGESLVCKNALQDLSFLEHLLQVKYAPKTWKEQYLGWDLVQSSVSAQQKLRTQENPSTSFCQQVLADFIGGLNDFHAGVTFFAIESAYLPYTVQKSSDGRFYFVDIMTFSSEIRVGDELLEVDGAPVQDVLATLYGSNHKGTAAEESAALRTLFSRMASLGHKVPSGRTTLKIRRPFGTTREVRVKWRYVPEGVGDLATIAPSIRAPQLQKSM
Regarding B6, the “turnover time in pulse chase studies” value in data set [1] is “long”.

B7: CT858: C. trachomatis 67 kDa protein, fragments DT4 (C-terminal) and DT48 (N-terminal) (protein)
chain: MKMNRIWLLLLTFSSAIHSPVQGESLVCKNALQDLSFLEHLLQVKYAPKTWKEQYLGWDLVQSSVSAQQKLRTQENPSTSFCQQVLADFIGGLNDFHAGVTFFAIESAYLPYTVQKSSDGRFYFVDIMTFSSEIRVGDELLEVDGAPVQDVLATLYGSNHKGTAAEESAALRTLFSRMASLGHKVPSGRTTLKIRRPFGTTREVRVKWRYVPEGVGDLATIAPSIRAPQLQKSMRSFFPKKDDAFHRSSSLFYSPMVPHFWAELRNHYATSGLKSGYNIGSTDGFLPVIGPVIWESEGLFRAYISSVTDGDGKSHKVGFLRIPTYSWQDMEDFDPSGPPPWEEFAKIIQVFSSNTEALIIDQTNNPGGSVLYLYALLSMLTDRPLELPKHRMILTQDEVVDALDWLTLLENVDTNVESRLALGDNMEGYTVDLQVAEYLKSFGRQVLNCWSKGDIELSTPIPLFGFEKIHPHPRVQYSKPICVLINEQDFSCADFFPVVLKDNDRALIVGTRTAGAGGFVFNVQFPNRTGIKTCSLTGSLAVREHGAFIENIGVEPHIDLPFTANDIRYKGYSEYLDKVKKLVCQLINNDGTIILAEDGSF
Take B7: the “turnover time in pulse chase studies” value in data set [1] was “long”.

B8: DT4: C. trachomatis D protein spot, C-terminal fragment of CT858 (protein)
chain: GYNIGSTDGFLPVIGPVIWESEGLFRAYISSVTDGDGKSHKVGFLRIPTYSWQDMEDFDPSGPPPWEEFAKIIQVFSSNTEALIIDQTNNPGGSVLYLYALLSMLTDRPLELPKHRMILTQDEVVDALDWLTLLENVDTNVESRLALGDNMEGYTVDLQVAEYLKSFGRQVLNCWSKGDIELSTPIPLFGFEKIHPHPRVQYSKPICVLINEQDFSCADFFPVVLKDNDRALIVGTRTAGAGGFVFNVQFPNRTGIKTCSLTGSLAVREHGAFIENIGVEPHIDLPFTANDIRYKGYSEYLDKVKKLVCQLINNDGTIILAEDGSF
Take B8: the “turnover time in pulse chase studies” value in data set [1] was “long”.
